In publication PMC4511852:

Assays:
[1] = target: Avitag-RSL-His8 (RSL with biotin via the Avitag on the N-terminus and His8 on the C-terminus) (Ralstonia solanum); assay: SEC
[2] = target: His8-RSL-Avitag (RSL with poly-histidine on the N-terminus and biotin via the Avitag on the C-terminus) (Ralstonia solanum); assay: SEC

Row | Substance | stoichiometry N [1] | stoichiometry N [2]
1 | Avitag-RSL-His8 (RSL with biotin via the Avitag on the N-terminus and His8 on the C-terminus) (natural protein) | 2 | 
2 | His8-RSL-Avitag (RSL with poly-histidine on the N-terminus and biotin via the Avitag on the C-terminus) (natural protein) |  | 3
